B1: Escherichia coli MnmG (enzyme, E. coli)
chain: MFYPDPFDVIIIGGGHAGTEAAMAAARMGQQTLLLTHNIDTLGQMSCNPAIGGIGKGHLVKEVDALGGLMAKAIDQAGIQFRILNASKGPAVRATRAQADRVLYRQAVRTALENQPNLMIFQQAVEDLIVENDRVVGAVTQMGLKFRAKAVVLTVGTFLDGKIHIGLDNYSGGRAGDPPSIPLSRRLRELPLRVGRLKTGTPPRIDARTIDFSVLAQQHGDNPMPVFSFMGNASQHPQQVPCYITHTNEKTHDVIRSNLDRSPMYAGVIEGVGPRYCPSIEDKVMRFADRNQHQIFLEPEGLTSNEIYPNGISTSLPFDVQMQIVRSMQGMENAKIVRPGYAIEYDFFDPRDLKPTLESKFIQGLFFAGQINGTTGYEEAAAQGLLAGLNAARLSADKEGWAPARSQAYLGVLVDDLCTLGTKEPYRMFTSRAEYRLMLREDNADLRLTEIGRELGLVDDERWARFNEKLENIERERQRLKSTWVTPSAEAAAEVNAHLTAPLSREASGEDLLRRPEMTYEKLTTLTPFAPALTDEQAAEQVEIQVKYEGYIARQQDEIEKQLRNENTLLPATLDYRQVSGLSNEVIAKLNDHKPASIGQASRISGVTPAAISILLVWLKKQGMLRRSA
notes: E. coli MnmG in pET14b, preceded by an N-terminal His-tag and TEV cleavage site; domains described over residues 1-629; Homodimer (β2); also called EcMnmG; β2; source: E. coli BL21(DE3), purified (Ni-NTA IMAC, Superdex200 SEC)

How the values were obtained:
Escherichia coli MnmG [1] = target: B1; test: ITC; wild-type or mutant MnmE 700 μM in the syringe, MnmG 70 μM in the cell; with 1 mM FAD and 1 mM GppNHp; 25°C; 20 mM HEPES pH 7.5, 75 mM NaCl, 75 mM KCl, 5 mM MgCl2, 2 mM β-mercaptoethanol; one set of sites model; settings: both partners purified
[2] = target: the molecule itself; test: cryo-EM structure; MnmE–MnmG complex formed with GppNHp, FAD and K+ (20 mM HEPES pH 7.5, 150 mM KCl, 5 mM MgCl2, 2 mM DTT), purified by SEC; α2β2 and α4β2 classes
Escherichia coli MnmG [3] = target: B1; test: ITC; MnmE 700 μM in the syringe, MnmG 70 μM in the cell; no ligands; 25°C; 20 mM HEPES pH 7.5, 75 mM NaCl, 75 mM KCl, 5 mM MgCl2, 2 mM β-mercaptoethanol; one set of sites model; settings: both partners purified
Escherichia coli MnmG [4] = target: B1; test: ITC; MnmE 700 μM in the syringe, MnmG 70 μM in the cell; with 1 mM FAD; 25°C; 20 mM HEPES pH 7.5, 75 mM NaCl, 75 mM KCl, 5 mM MgCl2, 2 mM β-mercaptoethanol; one set of sites model; settings: both partners purified
Escherichia coli MnmG [5] = target: B1; test: ITC; MnmE 700 μM in the syringe, MnmG 70 μM in the cell; with 1 mM GppNHp; 25°C; 20 mM HEPES pH 7.5, 75 mM NaCl, 75 mM KCl, 5 mM MgCl2, 2 mM β-mercaptoethanol; one set of sites model; settings: both partners purified

| Kd (Escherichia coli MnmG [1]) | stoichiometry N (Escherichia coli MnmG [1]) | Kd (Escherichia coli MnmG [3]) | stoichiometry N (Escherichia coli MnmG [3]) | Kd (Escherichia coli MnmG [4]) | stoichiometry N (Escherichia coli MnmG [4]) | Kd (Escherichia coli MnmG [5]) | stoichiometry N (Escherichia coli MnmG [5]) | Binder | stoichiometry N [2] |
| --- | --- | --- | --- | --- | --- | --- | --- | --- | --- |
| 1700 nM | 0.6 |  |  |  |  |  |  | Escherichia coli MnmE-Δ450–454 (domain or fragment, E. coli, UniProt P25522 1-449, looked up, E. coli MnmE without the C-terminal conserved 450FCIGK454 motif (deletion of residues 450-454; K454 is the C-terminal residue of MnmE); C-terminal truncation of m1; made from the wild-type open reading frame in pET20b; source: E. coli BL21(DE3), purified (Ni-NTA IMAC, alkaline phosphatase treatment, second Ni-NTA, Superdex200 SEC)) MSDNDTIVAQATPPGRGGVGILRISGFKAREVAETVLGKLPKPRYADYLPFKDADGSVLDQGIALWFPGPNSFTGEDVLELQGHGGPVILDLLLKRILTIPGLRIARPGEFSERAFLNDKLDLAQAEAIADLIDASSEQAARSALNSLQGAFSARVNHLVEALTHLRIYVEAAIDFPDEEIDFLSDGKIEAQLNDVIADLDAVRAEARQGSLLREGMKVVIAGRPNAGKSSLLNALAGREAAIVTDIAGTTRDVLREHIHIDGMPLHIIDTAGLREASDEVERIGIERAWQEIEQADRVLFMVDGTTTDAVDPAEIWPEFIARLPAKLPITVVRNKADITGETLGMSEVNGHALIRLSARTGEGVDVLRNHLKQSMGFDTNMEGGFLARRRHLQALEQAAEHLQQGKAQLLGAWAGELLAEELRLAQQNLSEITGEFTSDDLLGRIFSS |  |
|  |  |  |  |  |  |  |  | B1 | 2 |
| 4100 nM | 0.8 |  |  |  |  |  |  | Escherichia coli MnmE-Δ436–454 (domain or fragment, E. coli, UniProt P25522 1-435, looked up, E. coli MnmE without the entire C-terminal swivel helix (deletion of residues 436-454; K454 is the C-terminal residue of MnmE); C-terminal truncation of m1; made from the wild-type open reading frame in pET20b; source: E. coli BL21(DE3), purified (Ni-NTA IMAC, alkaline phosphatase treatment, second Ni-NTA, Superdex200 SEC)) MSDNDTIVAQATPPGRGGVGILRISGFKAREVAETVLGKLPKPRYADYLPFKDADGSVLDQGIALWFPGPNSFTGEDVLELQGHGGPVILDLLLKRILTIPGLRIARPGEFSERAFLNDKLDLAQAEAIADLIDASSEQAARSALNSLQGAFSARVNHLVEALTHLRIYVEAAIDFPDEEIDFLSDGKIEAQLNDVIADLDAVRAEARQGSLLREGMKVVIAGRPNAGKSSLLNALAGREAAIVTDIAGTTRDVLREHIHIDGMPLHIIDTAGLREASDEVERIGIERAWQEIEQADRVLFMVDGTTTDAVDPAEIWPEFIARLPAKLPITVVRNKADITGETLGMSEVNGHALIRLSARTGEGVDVLRNHLKQSMGFDTNMEGGFLARRRHLQALEQAAEHLQQGKAQLLGAWAGELLAEELRLAQQNLSEITG |  |
| 420 nM | 0.6 | 3400 nM | 0.9 | 800 nM | 0.8 | 770 nM | 1.1 | Escherichia coli MnmE (wild type) (enzyme, E. coli, UniProt P25522 1-454, looked up, E. coli MnmE, wild-type open reading frame in pET20b, preceded by an N-terminal His-tag and TEV cleavage site; 454 residues (K454 is the C-terminal residue); Homodimer (α2); also called EcMnmE; α2; source: E. coli BL21(DE3), purified (Ni-NTA IMAC, alkaline phosphatase treatment, second Ni-NTA, Superdex200 SEC)) MSDNDTIVAQATPPGRGGVGILRISGFKAREVAETVLGKLPKPRYADYLPFKDADGSVLDQGIALWFPGPNSFTGEDVLELQGHGGPVILDLLLKRILTIPGLRIARPGEFSERAFLNDKLDLAQAEAIADLIDASSEQAARSALNSLQGAFSARVNHLVEALTHLRIYVEAAIDFPDEEIDFLSDGKIEAQLNDVIADLDAVRAEARQGSLLREGMKVVIAGRPNAGKSSLLNALAGREAAIVTDIAGTTRDVLREHIHIDGMPLHIIDTAGLREASDEVERIGIERAWQEIEQADRVLFMVDGTTTDAVDPAEIWPEFIARLPAKLPITVVRNKADITGETLGMSEVNGHALIRLSARTGEGVDVLRNHLKQSMGFDTNMEGGFLARRRHLQALEQAAEHLQQGKAQLLGAWAGELLAEELRLAQQNLSEITGEFTSDDLLGRIFSSFCIGK | 2 |
| 2200 nM | 0.5 |  |  |  |  |  |  | Escherichia coli MnmE K454A (enzyme, E. coli, UniProt P25522 1-454, looked up, E. coli MnmE point variant made by QuikChange from the wild-type open reading frame in pET20b; Variant of m1; source: E. coli BL21(DE3), purified (Ni-NTA IMAC, alkaline phosphatase treatment, second Ni-NTA, Superdex200 SEC)) MSDNDTIVAQATPPGRGGVGILRISGFKAREVAETVLGKLPKPRYADYLPFKDADGSVLDQGIALWFPGPNSFTGEDVLELQGHGGPVILDLLLKRILTIPGLRIARPGEFSERAFLNDKLDLAQAEAIADLIDASSEQAARSALNSLQGAFSARVNHLVEALTHLRIYVEAAIDFPDEEIDFLSDGKIEAQLNDVIADLDAVRAEARQGSLLREGMKVVIAGRPNAGKSSLLNALAGREAAIVTDIAGTTRDVLREHIHIDGMPLHIIDTAGLREASDEVERIGIERAWQEIEQADRVLFMVDGTTTDAVDPAEIWPEFIARLPAKLPITVVRNKADITGETLGMSEVNGHALIRLSARTGEGVDVLRNHLKQSMGFDTNMEGGFLARRRHLQALEQAAEHLQQGKAQLLGAWAGELLAEELRLAQQNLSEITGEFTSDDLLGRIFSSFCIGA |  |

Source: article PMC12397908, “Cryo-EM structures of the MnmE–MnmG complex reveal large conformational changes and provide new insights into the mechanism of tRNA modification” (Nucleic Acids Research, 2025)
